# T1: NIK peptide TEGKMARVAWKGKRRSKARK (SEQ ID NO:164) (not fully specified)
# T1 chain: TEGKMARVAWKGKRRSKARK
# T2: MGC2941 peptide RPTPGDGEKRSRIKKSKKRK (SEQ ID NO:139) (not fully specified)
# T2 chain: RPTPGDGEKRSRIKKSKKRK
# T3: GABRB2 peptide QKKSRLRRRASQLKI (SEQ ID NO:84) (not fully specified)
# T3 chain: QKKSRLRRRASQLKI
# T4: MAP3K14 peptide WKGKRRSKARKKRK (SEQ ID NO:100) (not fully specified)
# T4 chain: WKGKRRSKARKKRK
# T5: DGKI peptide NRKKKRTSFKRKA (SEQ ID NO:79) (not fully specified)
# T5 chain: NRKKKRTSFKRKA
# T6: ANK1 peptide AQIVKRASLKRGKQ (SEQ ID NO:90) (not fully specified)
# T6 chain: AQIVKRASLKRGKQ
# T7: nuclear RNA export factor 3 peptide VRYTPYTISPYNRKGSFRKQ (SEQ ID NO:143) (not fully specified)
# T7 chain: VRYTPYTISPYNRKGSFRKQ
# T8: AF15q14 peptide GFLNEPLSSKSQRRKSLKLK (SEQ ID NO:132) (not fully specified)
# T8 chain: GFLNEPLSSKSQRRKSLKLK
# T9: CACNA1C peptide RGFLRSASLGRRASFHLE (SEQ ID NO:96) (not fully specified)
# T9 chain: RGFLRSASLGRRASFHLE
# T10: MLK3 peptide HVRRRRGTFKRSKLRARD (SEQ ID NO:76) (not fully specified)
# T10 chain: HVRRRRGTFKRSKLRARD
# T11: dag kinase iota peptide NRKKKRTSFKRKA (SEQ ID NO:115) (not fully specified)
# T11 chain: NRKKKRTSFKRKA
# T12: calcium channel, voltage-dependent, L type, alpha peptide RDIRQSPKRGFLRSASLGRR (SEQ ID NO:147) (not fully specified)
# T12 chain: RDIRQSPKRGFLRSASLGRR
# T13: SYTL4 peptide RQGKRKTSIKRDTVNPL (SEQ ID NO:87) (not fully specified)
# T13 chain: RQGKRKTSIKRDTVNPL
# T14: ribosomal protein S6 peptide AKRRRLSSLRASTSK (SEQ ID NO:120) (not fully specified)
# T14 chain: AKRRRLSSLRASTSK
# T15: MARCKS peptide KKRFSFKKSFKLSGFSFKKN (SEQ ID NO:123) (not fully specified)
# T15 chain: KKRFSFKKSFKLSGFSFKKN
# T16: MARCKS peptide PSPSNETPKKKKKRFSFKKS (SEQ ID NO:157) (not fully specified)
# T16 chain: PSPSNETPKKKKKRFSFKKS
# T17: PRKCA peptide RFARKGSLRQKNV (SEQ ID NO:85) (not fully specified)
# T17 chain: RFARKGSLRQKNV
# T18: cyclophilin G peptide TEEKSKKRKKKHRKNSRKHK (SEQ ID NO:165) (not fully specified)
# T18 chain: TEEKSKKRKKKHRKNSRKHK
# T19: pleckstrin 1 peptide KAIKAIEGGQKFARKSTRRS (SEQ ID NO:126) (not fully specified)
# T19 chain: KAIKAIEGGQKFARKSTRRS
# T20: ASIP peptide KKRSSKKEASMKKVVRP (SEQ ID NO:97) (not fully specified)
# T20 chain: KKRSSKKEASMKKVVRP
# T21: NIK peptide WKGKRRSKARKKRK (SEQ ID NO:131) (not fully specified)
# T21 chain: WKGKRRSKARKKRK
# T22: p47phox peptide QAQRQIKRGAPPRRSSIRNA (SEQ ID NO:146) (not fully specified)
# T22 chain: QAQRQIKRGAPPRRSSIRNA
# T23: dag kinase iota peptide NRKKKRTSFKRKA (SEQ ID NO:117) (not fully specified)
# T23 chain: NRKKKRTSFKRKA
# T24: HERG peptide TELEGGFSRQRKRKLSFRRR (SEQ ID NO:140) (not fully specified)
# T24 chain: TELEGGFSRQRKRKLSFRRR
# T25: ankyrin R peptide DLIEGRKGAQIVKRASLKRG (SEQ ID NO:152) (not fully specified)
# T25 chain: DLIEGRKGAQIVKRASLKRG
# T26: SPTBN4 peptide EGGDRRASGRRK (SEQ ID NO:110) (not fully specified)
# T26 chain: EGGDRRASGRRK
# T27: ARHGAP6 peptide SAQITIPKDGQKRKKSLRKK (SEQ ID NO:156) (not fully specified)
# T27 chain: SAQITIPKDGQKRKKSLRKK
# T28: NMDAR1 peptide RAITSTLASSFKRRR (SEQ ID NO:122) (not fully specified)
# T28 chain: RAITSTLASSFKRRR
# T29: MARCKS peptide KKKRFSFKKSFKLSGFSFKK (SEQ ID NO:111) (not fully specified)
# T29 chain: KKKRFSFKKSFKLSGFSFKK
# Experiments:
# [1] = target: T1, NIK peptide TEGKMARVAWKGKRRSKARK (SEQ …)
# [2] = target: T2, MGC2941 peptide RPTPGDGEKRSRIKKSKKRK …
# [3] = target: T3, GABRB2 peptide QKKSRLRRRASQLKI (SEQ ID …)
# [4] = target: T4, MAP3K14 peptide WKGKRRSKARKKRK (SEQ ID …)
# [5] = target: T5, DGKI peptide NRKKKRTSFKRKA (SEQ ID …)
# [6] = target: T6, ANK1 peptide AQIVKRASLKRGKQ (SEQ ID …)
# [7] = target: T7, nuclear RNA export factor 3 peptide …
# [8] = target: T8, AF15q14 peptide GFLNEPLSSKSQRRKSLKLK …
# [9] = target: T9, CACNA1C peptide RGFLRSASLGRRASFHLE (SEQ …)
# [10] = target: T10, MLK3 peptide HVRRRRGTFKRSKLRARD (SEQ ID …)
# [11] = target: T11, dag kinase iota peptide NRKKKRTSFKRKA …
# [12] = target: T12, calcium channel, voltage-dependent, L …
# [13] = target: T13, SYTL4 peptide RQGKRKTSIKRDTVNPL (SEQ ID …)
# [14] = target: T14, ribosomal protein S6 peptide …
# [15] = target: T15, MARCKS peptide KKRFSFKKSFKLSGFSFKKN …
# [16] = target: T16, MARCKS peptide PSPSNETPKKKKKRFSFKKS …
# [17] = target: T17, PRKCA peptide RFARKGSLRQKNV (SEQ ID …)
# [18] = target: T18, cyclophilin G peptide …
# [19] = target: T19, pleckstrin 1 peptide …
# [20] = target: T20, ASIP peptide KKRSSKKEASMKKVVRP (SEQ ID …)
# [21] = target: T21, NIK peptide WKGKRRSKARKKRK (SEQ ID …)
# [22] = target: T22, p47phox peptide QAQRQIKRGAPPRRSSIRNA …
# [23] = target: T23, dag kinase iota peptide NRKKKRTSFKRKA …
# [24] = target: T24, HERG peptide TELEGGFSRQRKRKLSFRRR (SEQ …)
# [25] = target: T25, ankyrin R peptide DLIEGRKGAQIVKRASLKRG …
# [26] = target: T26, SPTBN4 peptide EGGDRRASGRRK (SEQ ID …)
# [27] = target: T27, ARHGAP6 peptide SAQITIPKDGQKRKKSLRKK …
# [28] = target: T28, NMDAR1 peptide RAITSTLASSFKRRR (SEQ ID …)
# [29] = target: T29, MARCKS peptide KKKRFSFKKSFKLSGFSFKK …
protein,measurement,setting,value
PKC-epsilon (protein) MVVFNGLLKIKICEAVSLKPTAWSLRHAVGPRPQTFLLDPYIALNVDDSRIGQTATKQKTNSPAWHDEFVTDVCNGRKIELAVFHDAPIGYDDFVANCTIQFEELLQNGSRHFEDWIDLEPEGRVYVIIDLSGSSGEAPKDNEERVFRERMRPRKRQGAVRRRVHQVNGHKFMATYLRQPTYCSHCRDFIWGVIGKQGYQCQVCTCVVHKRCHELIITKCAGLKKQETPDQVGSQRFSVNMPHKFGIHNYKVPTFCDHCGSLLWGLLRQGLQCKVCKMNVHRRCETNVAPNCGVDARGIAKVLADLGVTPDKITNSGQRRKKLIAGAESPQPASGSSPSEEDRSKSAPTSPCDQEIKELENNIRKALSFDNRGEEHRAASSPDGQLMSPGENGEVRQGQAKRLGLDEFNFIKVLGKGSFGKVMLAELKGKDEVYAVKVLKKDVILQDDDVDCTMTEKRILALARKHPYLTQLYCCFQTKDRLFFVMEYVNGGDLMFQIQRSRKFDEPRSRFYAAEVTSALMFLHQHGVIYRDLKLDNILLDAEGHCKLADFGMCKEGILNGVTTTTFCGTPDYIAPEILQELEYGPSVDWWALGVLMYEMMAGQPPFEADNEDDLFESILHDDVLYPVWLSKEAVSILKAFMTKNPHKRLGCVASQNGEDAIKQHPFFKEIDWVLLEQKKIKPPFKPRIKTKRDVNNFDQDFTREEPVLTLVDEAIVKQINQEEFKGFSYFGEDLMP,"in vitro phosphorylation, 1 uM peptide (% of best substrate)",[1],12
same,"in vitro phosphorylation, 1 uM peptide (% of best substrate)",[2],24
same,in vitro phosphorylation (% of best substrate),[3],52
same,in vitro phosphorylation (% of best substrate),[4],13
same,in vitro phosphorylation (% of best substrate),[5],92
same,in vitro phosphorylation (% of best substrate),[6],49
same,"in vitro phosphorylation, 1 uM peptide (% of best substrate)",[7],21
same,"in vitro phosphorylation, 1 uM peptide (% of best substrate)",[8],47
same,in vitro phosphorylation (% of best substrate),[9],41
same,in vitro phosphorylation (% of best substrate),[10],100
same,"in vitro phosphorylation, 1 uM peptide (% of best substrate)",[11],91
same,"in vitro phosphorylation, 1 uM peptide (% of best substrate)",[12],26
same,in vitro phosphorylation (% of best substrate),[13],31
same,"in vitro phosphorylation, 1 uM peptide (% of best substrate)",[14],56
same,"in vitro phosphorylation, 1 uM peptide (% of best substrate)",[15],67
same,"in vitro phosphorylation, 1 uM peptide (% of best substrate)",[16],12
same,in vitro phosphorylation (% of best substrate),[17],86
same,"in vitro phosphorylation, 1 uM peptide (% of best substrate)",[18],12
same,"in vitro phosphorylation, 1 uM peptide (% of best substrate)",[19],69
same,in vitro phosphorylation (% of best substrate),[20],16
same,"in vitro phosphorylation, 1 uM peptide (% of best substrate)",[21],43
same,"in vitro phosphorylation, 1 uM peptide (% of best substrate)",[22],28
same,"in vitro phosphorylation, 1 uM peptide (% of best substrate)",[23],67
same,"in vitro phosphorylation, 1 uM peptide (% of best substrate)",[24],27
same,"in vitro phosphorylation, 1 uM peptide (% of best substrate)",[25],25
same,in vitro phosphorylation (% of best substrate),[26],4
same,"in vitro phosphorylation, 1 uM peptide (% of best substrate)",[27],18
same,"in vitro phosphorylation, 1 uM peptide (% of best substrate)",[28],72
same,in vitro phosphorylation (% of best substrate),[29],12
